The nature of this data set: soluble on expression in E. coli; label from the status in PepcDB or PDB records.
As for “MNGTKQQRRRGDTRQRIQDVALGLFAEQGYEKTSLREIAESLDVTKAALYYHFKTKEEILVSIFEDLSRPLEDLIEWGREQPHTLETKQEIIRRYSEALAGAAPLFRFMQENQATVRDLRIGELFKHRMFGLRDILMDPEADLVDQVRCISALFTLHAGMFVLRDLEGDPEEQRAAVLEVATDLITQAHRGAAGA”, the “soluble on expression in E. coli” value is given as “not soluble”.

Regarding “MIFMFRKVLFPTDFSEGAYRAVEVFEKRNKMEVGEVILLHVIDEGTLEELMDGYSFFYDNAEIELKDIKEKLKEEASRKLQEKAEEVKRAFRAKNVRTIIRFGIPWDEIVKVAEEENVSLIILPSRGKLSLSHEFLGSTVMRVLRKTKKPVLIIKEVDENELAKTKGTSG”, the “soluble on expression in E. coli” value is “soluble”.

Regarding “MGSDKIHHHHHHMDVNEIRENAKKLMELMMLDKPFVAVKLAKSKEEIPEGYETLDEEKRHCEMIQMARLERKKLYATVDKHLCKGGAYAMGVFRNPPEPLATGKLYVKLGNFKDEEAAKKTVDAIPKVEEEIYATVYAPLDETDFIPDSIVFIGEPLYALRLVQAILYHKGGRFQADFSGIQSLCADAVAAVYTRKAPNMTLGCNGSRKYAGIKPEEVVVAFPPEKLKDIVEAIEHFRQVWTCGH”, the “soluble on expression in E. coli” value was “not soluble”.

As for “VALAATRAFYWIEAQSPDAATAFAQRVFDLYFSDRLDTASPEAVSRLGPEVGLEPEALLAGIADPALKETVRKIGEDAVARGIFGSPFFLVDDEPFWGWDRMEMMAEWIRTGGW”, the “soluble on expression in E. coli” value was “not soluble”.

As for “MAHHHHHHMNINKILFSKVGEVVKNGNGGMNMQQGASQLLSGKKLIYISKPTHGGFIYWKCRELIHTIKKKTKRCARYLDINHDFSRAALVGVPKTSYDPKNNIFYIQMDNEEWAGNFYKNGPSGVLMWGVMFFAKVCKMGKNALHTIRAAPFGRFAE”, the “soluble on expression in E. coli” value is “not soluble”.

On to “MGSDKIHHHHHHAQIADRVYKTDYHIDPEKARELSVELDNISFFKDNEYTGKFTKGYSLPGLWVQGKAVYYPLRNIKLEAGVHMLIYHGANKYPSMAYQDIAYWKGDQYQKGVHVLPYFRAQMALSDHVNIVLGNIYGASNHNLIEPLYNPELNLTCDPEAGLQLLYDSKAFDLDVWVNWQSFIFREDVHQEAFTVGISSRLKYNDPASRFHFYTPVQGLVQHRGGEIDTIFNNSVQTLMNGAIGVGGVWNTGHRIFKNLNVELDATGYYQQAGEIWPFDSGYGLYARASADIYDFRVKTSYWTCEDFISMFGSPFFGAASMIDEGVTFDRPQMIYLGVEYSRQLAKGFSIGVDVDVFHHLSGDMNDADGVKQPMGSATSFTAGVYMRINPSFLIKKF”, for which the “soluble on expression in E. coli” value is reported as “not soluble”.

In the case of “MGSDKIHHHHHHMNYLRLNNITKRFGSFIANDNINLSVASGSIHAILGENGAGKSTLMNIISGLYQPDAGEIYLQEQPIKITSPNEAIKLGIGMIYQHFMLIPKLTVTENIILGIEKTWRLNLEDKQQKIAALSQAYGLEIDPTAKVENLSVGAQQRVEILKVLYRQAKLLILDEPTAVLTPPEVESLIAILRQLASAGNTIIFISHKLEEVMNLCDSVTVLRQGKVVATTSTEAATSQQLATLMVGREVALQLNKSPTLPGEIILSVQNLQVADERNILAVNNVSFELRAGEILGIAGVDGNGQRELADAIAFVRTIKQGKIEFTPKHSSVGYIPEDRQTMGLVLQFSIAQNLILKAFKYLPFCRRFLLQQEAIANRAQAAMQEFDIRASGKDILVSQLSGGNQQKVVLARELALTPALIIAMQPTRGLDVGATIAVQSRILTERDRGAAILYISTELEEVMAMSDRIAVIYRGEFVAILDAATAKVEEIGLLMAGGIN”, the “soluble on expression in E. coli” value is “not soluble”.

Consider “MIITDVEVRVFRTTTRRHSDSAGHAHPGPAHQVEQAMLTVRTEDGQEGHSFTAPEIVRPHVIEKFVKKVLIGEDHRDRERLWQDLAHWQRGSAAQLTDRTLAVVDCALWDLAGRSLGQPVYKLIGGYRDKVLAYGSIMCGDELEGGLATPEDYGRFAETLVKRGYKGIKLHTWMPPVSWAPDVKMDLKACAAVREAVGPDIRLMIDAFHWYSRTDALALGRGLEKLGFDWIEEPMDEQSLSSYKWLSDNLDIPVVGPESAAGKHWHRAEWIKAGACDILRTGVNDVGGITPALKTMHLAEAFGMECEVHGNTAMNLHVVAATKNCRWYERGLLHPFLEYDDGHDYLKSLSDPMDRDGFVHVPDRPGLGEDIDFTFIDNNRVR”, for which the “soluble on expression in E. coli” value is reported as “soluble”.

With “GMDVFSEYLAGIADPFHRERTEEVLTWIKNKYPNLHTEIKWNQPMFTDHGTFIIGFSVSKKHLAVAPEKVTIAHVEDDIVKAGYDYTEQLIRIPWNGPVDYTLLEKMIEFNILDKADCSTFWRK”, the “soluble on expression in E. coli” value was “soluble”.

Regarding “EITHRTKTRPVKVGPLTIGGNNEVVIQSMTTTKTHDVEATVAEINRLAEAGCQIVRVACPDERAANAIADIKKRISIPLVVDIHFDYKLALKAIEGGADKIRINPGNIGRREKVEAVVKAAKDKGIPI”, the “soluble on expression in E. coli” value is reported as “not soluble”.

Take “MPATPVPPVTMPPVPPVGFPPVTAPPGLHPPPPVPPVPVPTLPVTSEHKTAHDACIKRLEQLEIPPDPKIYPSPTEPGTFGSVTEVLTNVFGVEVHKTSNFYQYSVHITAELSSKKEVTFTKKGKEDFIVHDRHEKCSAILFHALNRFEDFFKSSENCIIYDGQSILFTSMNLFEGIPTGKIKTKVFQINGADTNLKDLMVLPCIKLEVFPTKNPVVNFSLEDIGRRTSDSNIESVNMAYKQILDLAMSQYAIRETSKCVVFEHGKMFFINPLQEGYAPCDIVEVGDGKQMKPGLKKTLQFIEGPYGRNQNNPSIVIDGMKVAFHMEQLVFQKLSSITSNLANGITGSERERCAAVIKGLDCHSNYRGRTRHHKIESIHHEGAATARFELEGGGTCTVATYFKDKYKIQLRYPNANLIVCKERGALNFYPMELITISPNQRVRITQQTSSQSQRTTKESAVLPDIRQRLIMTGKIAAKITAENEVLGKMGVTVCDEPLVVKGRNLPAIRLASFETGEHLINPRDCKWRPQRYNRSAVAPKVWALYGVGSPGSQMNRDVMRRFCDEFMNMSRSKGILFPPPGDVNLLTPDAIENRLREAANAGCTFVLCITEDNITCLHQKYKFIEHHTQMIVQDMKLSKALSVVNASKKLTLENVINKTNVKLGGSNYVYLDTKNFLQEHLIIGVGISSPPPGTKYIMESRGILNPTIVGFAYNGNGKQEFSGDFVLNAAGQETIAPIEDIVSYSIKGYKKFHDGKAPKRITIYRSGSSEGNHGPIISYEVPLARVAMRNFSPDTQLLYIVVSKEHTYRFFKKESGGSSSGGSNSAGASNSGTLTSAPPKPWELNIGPGLTVDYGVTNPACKQFFLNSHMTLQGSAKTPLYTVLADDRNIGMSALEEFTFNLCHLHQIVGLPTSIPTPLYVANEYAKRGRNLWNEAINANEIPEVTGPESARLKKMTDGISYMGSGDMIDRRVNA”: the “soluble on expression in E. coli” value is on record as “not soluble”.

With “RAPDLAGVPDCLVIVGGSMAAVKAPTALRRLREGGASTAVIATRAALAFITPLSLATAGNCEVATDETWFAPQPIAQHLSLARARVTVVLGASAELLAAAAHGHADTLATATLLSAEGQVLWVPAMNERMWLHPAVQANAERLRGWGHLFLGPETGAFGTPGEGSGTGRMAEPEAIAARALALLNEQDAEAEAAPQDLAGLKVV”, the “soluble on expression in E. coli” value was “not soluble”.

For the sequence “SMAPKPGLDFSPFDFAHFGFPSDNSGKERSFQAKPSPKLGRHVYSRPKVDIQKICIGNKNIFTVSDLKPDTQYYFDVFVVNINSNMSTAYVGTFARTKEEAKQKTVELKDGKITDVFVKRKGAKFLRFAPVSSHQKVTFFIHSCLDAVQIQVRRDGKLLLSQNVEGIQQFQLRGKPKAKYLVRLKGNKKGASMLKILATTRPTKQSFPSLPEDTRIKAFDKLRTCSSATVAWLGTQERNKFCIYKKEVDDNYNEDQKKREQNQCLGPDIRKKSEKVLCKYFHSQNLQKAVTTETIKGLQPGKSYLLDVYVIGHGGHSVKYQSKVVKTRKFC”, the “soluble on expression in E. coli” value is on record as “soluble”.

As to “MGSDKIHHHHHHLGPPTPLGLRAAPHNVTNLAQTPLAERLRSLVDTVQHNERTLRRFQSVELRLIGAQDFASFLDTLFGQLPREFSLAGVTLWLDDRAPMLRELLEPVALRALDQPRLRTSREGGLAAQGLCEDGRPWLGTPRELDDTVRRAFFGDAEQVPASAILLPLASGDTVGGYLWLGSDDAARFAQGMATDILERFASIVTASLDNVAHRERLKQLGMTDSLTGLANRRYFDERLREEVMRAVRYRMPVACLFIDIDSFKRINDTYGHQTGDRALAAVAACVRQQVRLGDTVARYGGEEFAALLQGDRADALTVAERVRLAVERLALQDDHGERIALTVSIGVAARMVSGTPTEAAMLGGAIIEEADRAMYQAKRNGRNRIEALVNASGDHTAG”, the “soluble on expression in E. coli” value is “not soluble”.

On to “GSHMASMTGGQQMGRGSMKFSFELAVNTKKEDAWTYYSQVNQWFVWEGDLEQISLEGEFTTGQKGKMKMEDMPELAFTLVEVRENQCFSDLTATPFGNVLFEHEILENPDGTISLRHSVSLTDSDTTEEALAFLKQIFADVPESVGKLKQILETV”, for which the “soluble on expression in E. coli” value was “soluble”.

For the sequence “MNASSRTKPAIDLNKVPPIDHHRTAVTFNCLIMKMTEMLNNFGNKMEDILEKAEQSLDTADRKLRLMESKLAGMSLEDKSTTATPSSAPEIDEIHESNPSSSQIVEETVEEKPEEHTTTVLIKDDPAYSKYFKMLKLGVLEAGVIQKMKSEGVDPSILKRGDEPSRPQAQTSRNYESSGESTASFSDSD”, the “soluble on expression in E. coli” value is listed as “not soluble”.

With “MFIEVEKFVEARTNSIAQLLKAIDNDALVSGEVTKGPRTAAQRLPRHMRRRAMAYDIRRFPRTMREFAAAHLISKHAKKCPSRFARRKSANSRTKFGRSTSTKGIWLSTHVWHAKRFRMIQKWGFKLADRSFQRGFRAVLRDSNKNCVIRDRSYYTCVTIQCTDAYSKISQFSQKGCRGQSSRDEEEECHQLYMPGKYPFGYIGPARFQRLSGDKVHIWIHPSSKLQFMKALLEYYNLEKQENTEEDLYKNSEIKVSIDAENICRFHLSGPKCLSKLRDSIRFVNDEKFSSEHNYFLSVSDSVFQSSRDGEVINLLIEDPRTTWDRKTVLKHKKVNKEADNERIRVSKFWNKEFREMAIEKRMADSEFHKQNSSKINGVISTEAKVPIILIIRNEGLKALDGADILIPEPFAKDFWVSLQRRGVRASGLRDEYAAHLESKALYYPLDDVGSEAGRESELAMKKELIEKYLGKPHNRRCKHWSAVSVKYPFEFKWDELSQDWNLSNKPRSEAFVCRDLQKLRIIEEAMKKGSGLEEFQEPGMLIPVKLQFFGRGRPKKYGMVCLPTDDDLISIRKNRNREIIQTPPEASSQDSDIVEAMEIEEITVKKNQGFMSLEAAASEKPINLKLLFEETTKLDDKTTKRKRVNRKKRESKKRRKIEQEKRKEEAEVEEVQKLATKYRFSANREIIGRLVAGEQSVLAGHGVGIGYICANTLSLIASNYHKSKTVVMVRNSTSKYYHPAYVTILKNATKI”, the “soluble on expression in E. coli” value was “not soluble”.

Take “PVTSISHEQLQQVHAEAGLTIALSTSVGDDLFYVDHVSSEPEYAYLAENRLRRSLLRTSAGWLLLADREQRDIWAYLNSRPVADADYIEQFLYALEALRATGVCAAPGVAVEHGDGVSVALRERGRTIATLGVVGVRETIIERRDELAKICLRHAEEWGFR”: the “soluble on expression in E. coli” value is “soluble”.

For “MKRLLILTALLPFVGFAQPINTLNNPNQPGYQIPSQQRMQTQMQTQQIQQKGMLNQQLKTQTQLQQQHLENQINNNSQRVLQSQPGERNPARQQMLPNTNGGMLNSNRNPDSSLNQQHMLPERRNGDMLNQPSTPQPDIPLKTIGP”, the “soluble on expression in E. coli” value is reported as “soluble”.

Values taken from the DeepSol protein solubility set.
